The test deals with T1, POPDC1-Myc (Popeye domain-containing protein 1, Myc-tagged) (mouse, UniProt Q9ES83 1-358).
T1 sequence (looked up): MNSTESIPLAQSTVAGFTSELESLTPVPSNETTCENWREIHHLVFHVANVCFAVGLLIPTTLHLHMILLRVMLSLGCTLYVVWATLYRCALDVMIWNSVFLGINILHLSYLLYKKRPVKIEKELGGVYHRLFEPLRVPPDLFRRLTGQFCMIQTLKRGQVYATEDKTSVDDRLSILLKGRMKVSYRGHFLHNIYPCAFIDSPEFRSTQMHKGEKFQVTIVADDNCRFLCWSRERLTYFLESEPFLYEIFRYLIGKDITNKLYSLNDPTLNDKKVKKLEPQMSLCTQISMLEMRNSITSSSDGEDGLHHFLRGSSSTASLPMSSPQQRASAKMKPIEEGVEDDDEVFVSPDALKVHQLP
The experiment in a line: co-IP.

B1: AC1 (adenylyl cyclase type 1), non-tagged (enzyme)
chain: not shown
As for B1, the “fold Ca2+/calmodulin-stimulated AC activity over IgG controls” value amounted to 1.59 fold.

Values taken from doi:10.1101/2021.12.21.473719 (bioRxiv, 2021).
